From patent US20230399394A1 (SUNSHINE GUOJIAN PHARMACEUTICAL SHANGHAI, published 2023)

Tests used:
Pep13 = target: T1, Pep13 (human, N-terminal biotin); assay: ELISA, biotinylated peptide on streptavidin plate, antibody 10 µg/mL, well 1
T1 construct: Synthetic 20-mer of human IL-33
T1 peptide: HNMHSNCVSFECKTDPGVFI
Method: (§1) To determine the binding activity of antibody to each polypeptide fragment, the ELISA plate was pre-coated by biotin-avidin (SA) which was diluted in coating solution (50 mM carbonate coating buffer, pH 9.6) to 2 μg/ml at 4° C. overnight. The plate was washed with PBST for 3 times, and then blocked with 2% BSA prepared in PBS at room temperature for 2 h with 200 μL/well. The plate was washed once with PBST, and 864F3 and 874F7 with final concentrations of 10 μg/mL were added at 100 μL/well, respectively, and the plate was incubated at room temperature for 1 h. The plate was washed with PBST for 3 times, and the goat anti-mouse IgG labeled by HRP was added and placed at 37° C. for 30 min. After washing the plate with PBST for 3 times, the plate was patted on the absorbent paper to remove residual droplets as far as possible. 100 μl TMB developing solution was added to each well, and the plate was placed at room temperature (20±5° C.) for 5 minutes away from light; 50 μl 2M H₂SO₄ terminating solution was added to each well to terminate the substrate reaction. OD values were read at 450 nm on the microplate reader to analyze the binding ability of the antibody to each polypeptide fragment. The experimental results are shown in […]

Pep10 = target: T2, Pep10 (human, N-terminal biotin); assay: as above
T2 construct: Synthetic 20-mer of human IL-33
T2 peptide: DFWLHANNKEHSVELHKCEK
Method: as §1

Pep8 = target: T3, Pep8 (human, N-terminal biotin); assay: as above
T3 construct: Synthetic 20-mer of human IL-33
T3 peptide: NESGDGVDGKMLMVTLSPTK
Method: as §1

Pep9 = target: T4, Pep9 (human, N-terminal biotin); assay: as above
T4 construct: Synthetic 20-mer of human IL-33
T4 peptide: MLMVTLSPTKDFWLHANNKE
Method: as §1

Pep4 = target: T5, Pep4 (human, N-terminal biotin); assay: as above
T5 construct: Synthetic 20-mer of human IL-33
T5 peptide: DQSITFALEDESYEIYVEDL
Method: as §1

Pep11 = target: T6, Pep11 (human, N-terminal biotin); assay: as above
T6 construct: Synthetic 20-mer of human IL-33
T6 peptide: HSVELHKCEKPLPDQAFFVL
Method: as §1

Pep7 = target: T7, Pep7 (human, N-terminal biotin); assay: as above
T7 construct: Synthetic 20-mer of human IL-33
T7 peptide: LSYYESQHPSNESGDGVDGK
Method: as §1

Pep16 = target: T8, Pep16 (human, N-terminal biotin); assay: as above
T8 construct: Synthetic 20-mer of human IL-33
T8 peptide: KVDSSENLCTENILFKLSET
Method: as §1

Pep14 = target: T9, Pep14 (human, N-terminal biotin); assay: as above
T9 construct: Synthetic 20-mer of human IL-33
T9 peptide: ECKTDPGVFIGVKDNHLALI
Method: as §1

Pep15 = target: T10, Pep15 (human, N-terminal biotin); assay: as above
T10 construct: Synthetic 20-mer of human IL-33
T10 peptide: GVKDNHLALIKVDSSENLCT
Method: as §1

Pep6 = target: T11, Pep6 (human, N-terminal biotin); assay: as above
T11 construct: Synthetic 20-mer of human IL-33
T11 peptide: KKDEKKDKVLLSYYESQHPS
Method: as §1

[1] = target: T12, IL-33 mutant protein E55A (human, UniProt O95760 112-270); assay: ELISA as Example 9; row E55A against WT-2
T12 construct: Prokaryotic expression
T12 chain: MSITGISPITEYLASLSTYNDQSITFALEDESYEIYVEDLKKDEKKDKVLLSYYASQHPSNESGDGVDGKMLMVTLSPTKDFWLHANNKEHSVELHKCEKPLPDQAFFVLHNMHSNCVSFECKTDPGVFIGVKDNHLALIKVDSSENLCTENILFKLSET
Method: (§2) SA protein was diluted to 2 μg/mL to coat ELISA plate at 100 μL/well overnight at 4° C. The plate was washed with PBST (PBS containing 0.05% Tween20) for 3 times, and blocked with 2% BSA prepared in PBS at 200 μL/well, at room temperature for 2 h. After the plate was washed twice with PBST, IL-33-his-biotin protein was diluted to 1 μg/mL with 1% BSA prepared in PBST, and was added to ELISA plate at 100 μL/well. The plate was incubated at room temperature for 1 h, and each monoclonal antibody was diluted with 1% BSA prepared in PBST in a 3-fold gradient. The highest concentration of antibody was 10 μg/mL, and the antibody was diluted for 12 gradients. Each diluted monoclonal antibody was added to ELISA wells with 100 μL/well, and the plate was incubated at room temperature for 1 h. Each sample was added to duplicate wells in parallel. The plate was washed with PBST for 3 times, and HRP-anti human IgG Fc secondary antibody prepared with PBST was diluted at an appropriate ratio, and was added to ELISA wells at 100 μL/well. […] Each reaction solution was shaken uniformly and OD450 nm was read on a microplate reader. The data was analyzed and EC₅₀ was calculated.
(§3) Subsequently, according to the experimental method of Example 9, the affinity of the above mutant proteins to 874F7-Hu1 was determined, and IL-33 proteins (WT-1, WT-2, WT-3, and WT-4) without any mutation were set as controls.

[2] = target: T13, IL-33 mutant protein Q57A (human, UniProt O95760 112-270); assay: ELISA as Example 9; row Q57A
T13 construct: Prokaryotic expression
T13 chain: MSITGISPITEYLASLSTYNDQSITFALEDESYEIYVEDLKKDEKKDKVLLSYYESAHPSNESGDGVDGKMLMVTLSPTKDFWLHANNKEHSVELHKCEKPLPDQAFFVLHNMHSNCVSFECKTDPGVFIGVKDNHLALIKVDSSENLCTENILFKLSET
Method: as §2, §3

[3] = target: T14, IL-33 mutant protein L50A (human, UniProt O95760 112-270); assay: ELISA as Example 9; row L50A against WT-4
T14 construct: Prokaryotic expression
T14 chain: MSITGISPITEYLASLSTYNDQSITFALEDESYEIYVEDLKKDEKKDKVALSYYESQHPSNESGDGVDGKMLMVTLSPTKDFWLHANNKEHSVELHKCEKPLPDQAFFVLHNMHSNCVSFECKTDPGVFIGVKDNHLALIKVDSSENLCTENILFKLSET
Method: as §2, §3

Row | Binder | OD450 (Pep13) | OD450 (Pep10) | OD450 (Pep8) | OD450 (Pep9) | OD450 (Pep4) | OD450 (Pep11) | OD450 (Pep7) | OD450 (Pep16) | OD450 (Pep14) | OD450 (Pep15) | OD450 (Pep6) | Affinity decline ratio [1] | EC50 [2] | Affinity decline ratio [3]
1 | 874F7 (antibody, V domains shown, Murine hybridoma antibody purified on Protein G; also called murine antibody 874F7) VH: QVQLKESGPGLVAPSHSLSITCNVSGFSLSKYGVHWIRQIPGRGLDWLGVLRAGGSTGYNSALMSRLSISKDSSKSQVFLKMNDLRTDDTAVYFCVRDHYYYSSYGGFVYWGQGTLVTVSA VL: DIQMTQSPASQSASLGESVTITCLASQTIGAWLAWYRQQPGKSPQLLIYAATRLADGVPSRFSGSGSGTEFSFKINNLQAEDFVSYYCQQLDSSPYTFGGGTRLEM | 0.054 OD450 | 0.053 OD450 | 0.053 OD450 | 0.065 OD450 | 0.05 OD450 | 0.056 OD450 | 0.055 OD450 | 0.049 OD450 | 0.059 OD450 | 0.055 OD450 | 1.04 OD450 | – | – | –
2 | 874F7-Hu1 (antibody, human IgG4 S228P, kappa, also called 874F7-Hul; humanized antibody 874F7-Hu1) heavy: not shown light: DIQMTQSPSSVSASVGDRVTITCLASQTIGAWLAWYQQKPGKSPKLLIYAATRLADGVPSRFSGSGSGTDFTLTISSLQPEDFATYYCQQLDSSPYTFGQGTKVEIKRTVAAPSVFIFPPSDEQLKSGTASVVCLLNNFYPREAKVQWKVDNALQSGNSQESVTEQDSKDSTYSLSSTLTLSKADYEKHKVYACEVTHQGLSSPVTKSFNRGEC | – | – | – | – | – | – | – | – | – | – | – | 2.5 fold | 0.12 nM | 28.5 fold
